The values below come from patent US20090098588A1.

Targets include SALPR fused to PK2 (UniProt Q9NSD7); MC3R fused to PK2 (UniProt P41968); SSTR1 fused to PK1 (UniProt P30872); PTHR2 fused to PK2 (UniProt P49190); SSTR4 fused to PK2 (UniProt P31391); SSTR4 fused to PK1 (UniProt P31391); SSTR1 fused to PK2 (UniProt P30872).
Assay in all cases: cell-based or functional assay
The target in the next assay is T1, CCR6 fused to PK2 (UniProt P51684).
T1 sequence (P51684 whole entry, species assumed, looked up): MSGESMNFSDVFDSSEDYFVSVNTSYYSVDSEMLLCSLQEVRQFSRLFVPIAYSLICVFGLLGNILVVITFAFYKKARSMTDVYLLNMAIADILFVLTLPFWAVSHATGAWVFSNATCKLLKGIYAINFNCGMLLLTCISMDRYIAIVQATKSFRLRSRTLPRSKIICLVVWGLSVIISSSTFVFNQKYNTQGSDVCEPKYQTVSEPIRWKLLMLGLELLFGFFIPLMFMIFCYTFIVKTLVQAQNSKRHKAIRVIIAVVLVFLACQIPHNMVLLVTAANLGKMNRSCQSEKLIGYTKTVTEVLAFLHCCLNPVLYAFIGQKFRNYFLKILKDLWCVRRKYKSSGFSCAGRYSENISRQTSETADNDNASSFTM

The target in another assay is T2, CCR6 fused to PK1 (UniProt P51684).
T2 sequence (looked up): T1 sequence (P51684 whole entry, species assumed, looked up)

Another assay deals with T3, CCR4 fused to PK1 (UniProt P51679).
T3 sequence (looked up): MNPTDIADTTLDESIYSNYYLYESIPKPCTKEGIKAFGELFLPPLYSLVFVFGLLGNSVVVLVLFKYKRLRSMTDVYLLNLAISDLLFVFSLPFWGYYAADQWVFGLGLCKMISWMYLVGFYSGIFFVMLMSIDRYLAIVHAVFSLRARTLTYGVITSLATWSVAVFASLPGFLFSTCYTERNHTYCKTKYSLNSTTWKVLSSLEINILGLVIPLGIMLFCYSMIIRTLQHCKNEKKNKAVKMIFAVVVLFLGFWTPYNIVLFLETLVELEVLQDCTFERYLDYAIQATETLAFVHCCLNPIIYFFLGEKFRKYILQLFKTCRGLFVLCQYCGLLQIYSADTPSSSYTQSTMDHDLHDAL

A further assay concerns the target T4, CCR4 fused to PK2 (UniProt P51679).
T4 sequence (P51679 whole entry, species assumed, looked up): T3 sequence (looked up)

Another assay deals with T5, CRHR2 fused to PK1 (UniProt Q13324).
T5 sequence (looked up): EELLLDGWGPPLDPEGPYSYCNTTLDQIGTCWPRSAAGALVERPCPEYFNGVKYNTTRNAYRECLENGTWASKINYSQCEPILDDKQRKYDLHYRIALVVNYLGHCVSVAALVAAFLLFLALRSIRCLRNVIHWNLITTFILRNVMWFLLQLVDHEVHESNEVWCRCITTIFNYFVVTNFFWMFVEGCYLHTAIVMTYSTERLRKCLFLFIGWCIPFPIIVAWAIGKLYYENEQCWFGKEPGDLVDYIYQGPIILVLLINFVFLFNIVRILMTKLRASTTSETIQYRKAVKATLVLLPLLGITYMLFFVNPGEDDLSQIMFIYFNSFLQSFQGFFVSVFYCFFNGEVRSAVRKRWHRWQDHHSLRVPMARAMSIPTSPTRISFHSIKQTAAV

Another assay concerns the target T6, CRHR2 fused to PK2 (UniProt Q13324).
T6 sequence (Q13324 whole entry, species assumed, looked up): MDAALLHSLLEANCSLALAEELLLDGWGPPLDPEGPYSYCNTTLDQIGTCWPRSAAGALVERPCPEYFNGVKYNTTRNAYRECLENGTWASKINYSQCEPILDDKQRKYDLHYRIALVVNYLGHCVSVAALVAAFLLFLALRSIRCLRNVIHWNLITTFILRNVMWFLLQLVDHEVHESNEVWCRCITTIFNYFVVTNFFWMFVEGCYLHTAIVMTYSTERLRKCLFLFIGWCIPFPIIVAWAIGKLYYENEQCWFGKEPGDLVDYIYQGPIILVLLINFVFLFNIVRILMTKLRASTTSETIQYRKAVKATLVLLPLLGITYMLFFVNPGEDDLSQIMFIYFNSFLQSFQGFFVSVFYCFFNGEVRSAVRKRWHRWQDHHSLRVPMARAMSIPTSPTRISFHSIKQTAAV

Chain of PTHR2 fused to PK2 (P49190 whole entry, the tested form may be a part): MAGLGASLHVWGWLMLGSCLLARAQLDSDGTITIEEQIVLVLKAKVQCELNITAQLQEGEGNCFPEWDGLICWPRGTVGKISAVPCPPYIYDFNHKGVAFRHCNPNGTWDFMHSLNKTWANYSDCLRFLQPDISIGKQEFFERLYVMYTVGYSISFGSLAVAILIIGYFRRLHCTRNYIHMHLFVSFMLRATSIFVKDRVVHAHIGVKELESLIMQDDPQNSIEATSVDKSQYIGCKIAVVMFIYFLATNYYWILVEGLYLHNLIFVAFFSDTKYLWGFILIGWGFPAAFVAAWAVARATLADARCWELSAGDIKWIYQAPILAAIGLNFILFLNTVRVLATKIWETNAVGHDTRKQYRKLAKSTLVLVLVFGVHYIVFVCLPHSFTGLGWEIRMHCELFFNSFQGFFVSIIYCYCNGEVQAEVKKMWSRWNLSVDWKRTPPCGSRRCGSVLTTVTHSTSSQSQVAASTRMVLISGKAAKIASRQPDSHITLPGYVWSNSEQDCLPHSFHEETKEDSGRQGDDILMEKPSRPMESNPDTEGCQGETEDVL
Chain of SSTR1 fused to PK1 (P30872 whole entry, the tested form may be a part): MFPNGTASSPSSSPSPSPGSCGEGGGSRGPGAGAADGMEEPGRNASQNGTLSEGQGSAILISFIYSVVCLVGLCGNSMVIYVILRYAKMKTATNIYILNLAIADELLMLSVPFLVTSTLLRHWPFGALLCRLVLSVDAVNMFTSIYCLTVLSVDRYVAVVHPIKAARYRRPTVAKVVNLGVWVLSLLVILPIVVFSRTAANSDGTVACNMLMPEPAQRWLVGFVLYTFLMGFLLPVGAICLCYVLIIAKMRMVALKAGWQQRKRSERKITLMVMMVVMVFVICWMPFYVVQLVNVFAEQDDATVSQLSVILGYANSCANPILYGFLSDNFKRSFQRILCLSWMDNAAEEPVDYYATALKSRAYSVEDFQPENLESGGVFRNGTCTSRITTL
Chain of SALPR fused to PK2 (Q9NSD7 whole entry, the tested form may be a part): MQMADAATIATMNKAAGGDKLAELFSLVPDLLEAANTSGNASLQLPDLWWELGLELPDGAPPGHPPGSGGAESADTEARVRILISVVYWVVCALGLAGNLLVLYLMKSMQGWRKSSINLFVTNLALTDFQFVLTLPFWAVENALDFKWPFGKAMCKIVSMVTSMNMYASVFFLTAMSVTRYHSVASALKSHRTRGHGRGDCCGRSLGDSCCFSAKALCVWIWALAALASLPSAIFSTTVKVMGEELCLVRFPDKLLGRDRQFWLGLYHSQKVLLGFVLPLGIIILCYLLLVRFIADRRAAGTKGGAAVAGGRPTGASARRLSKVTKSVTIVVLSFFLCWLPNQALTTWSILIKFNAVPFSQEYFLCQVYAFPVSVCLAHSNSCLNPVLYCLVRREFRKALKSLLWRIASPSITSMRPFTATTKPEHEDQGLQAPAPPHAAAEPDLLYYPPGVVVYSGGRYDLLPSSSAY
Chain of SSTR1 fused to PK2 (P30872 whole entry, the tested form may be a part): as the sequence (P30872 whole entry, the tested form may be a part) above
Chain of MC3R fused to PK2 (P41968 whole entry, the tested form may be a part): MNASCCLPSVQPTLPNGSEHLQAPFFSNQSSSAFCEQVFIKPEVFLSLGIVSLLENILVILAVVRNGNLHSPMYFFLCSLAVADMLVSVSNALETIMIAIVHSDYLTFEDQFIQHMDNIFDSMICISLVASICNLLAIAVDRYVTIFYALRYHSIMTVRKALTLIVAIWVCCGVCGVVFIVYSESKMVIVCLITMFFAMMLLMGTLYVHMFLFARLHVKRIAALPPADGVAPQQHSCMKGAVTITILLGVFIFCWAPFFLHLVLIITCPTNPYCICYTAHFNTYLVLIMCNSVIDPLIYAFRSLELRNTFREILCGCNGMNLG
Chain of SSTR4 fused to PK1 (P31391 whole entry, the tested form may be a part): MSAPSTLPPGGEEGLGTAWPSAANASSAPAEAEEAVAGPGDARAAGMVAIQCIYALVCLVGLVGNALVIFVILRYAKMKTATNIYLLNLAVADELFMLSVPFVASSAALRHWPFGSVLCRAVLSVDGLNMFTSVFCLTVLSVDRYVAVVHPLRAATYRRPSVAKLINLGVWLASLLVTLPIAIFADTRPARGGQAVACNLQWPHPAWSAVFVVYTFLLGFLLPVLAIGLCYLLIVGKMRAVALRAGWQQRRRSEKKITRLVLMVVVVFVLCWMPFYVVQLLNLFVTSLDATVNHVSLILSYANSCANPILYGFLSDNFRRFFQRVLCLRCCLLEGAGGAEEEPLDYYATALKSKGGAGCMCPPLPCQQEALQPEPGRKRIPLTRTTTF
Chain of SSTR4 fused to PK2 (P31391 whole entry, the tested form may be a part): as above

In the assay with SALPR fused to PK2, “Relaxin-3 (from UniProt Q8WXF3 26-142) (ligand)” displayed a Fold induct. (arrestin recruitment, beta-galactosidase EFC, saturating ligand) of 1.8 fold.

Consider “CCL20 (from UniProt P78556 27-96) (ligand)”, for which the Fold induct. (arrestin recruitment, beta-galactosidase EFC, saturating ligand) in the assay with CCR6 fused to PK2 came to 6.5 fold; in the assay with CCR6 fused to PK1 it was 1.4 fold.

Consider “aMSH (from UniProt P01189 138-150) (peptide)”, for which, in the assay with MC3R fused to PK2, the Fold induct. (arrestin recruitment, beta-galactosidase EFC, saturating ligand) is 3.2 fold.

Consider TYR-SRIF14 (peptide), for which the Fold induct. (arrestin recruitment, beta-galactosidase EFC, saturating ligand) in the assay with SSTR1 fused to PK1 was found to be 1 fold.

For “PTH (1-34) (from UniProt P01270 32-65) (peptide)”, the Fold induct. (arrestin recruitment, beta-galactosidase EFC, saturating ligand) in the assay with PTHR2 fused to PK2 was determined as 72.9 fold.

Take SLALADDAAFRERARLLAALERRHWLNSYMHKLLVLDAP (peptide, UniProt Q96A98 62-100, looked up) [TIP39]: the Fold induct. (arrestin recruitment, beta-galactosidase EFC, saturating ligand) in the assay with PTHR2 fused to PK2 was 2.8 fold.

Take SANSNPAMAPRERKAGCKNFFWKTFTSC (peptide, UniProt P61278 89-116, looked up) [Somatostatin-28]: the Fold induct. (arrestin recruitment, beta-galactosidase EFC, saturating ligand) in the assay with SSTR4 fused to PK2 came out at 1.6 fold; with SSTR4 fused to PK1, 1.3 fold; in the assay with SSTR1 fused to PK2, 1.3 fold; with SSTR1 fused to PK1 it was 1.2 fold.

B1: CCL22 (ligand, UniProt O00626 25-93, looked up)
chain: GPYGANMEDSVCCRDYVRYRLPLRVVKHFYWTSDSCPRPGVVLLTFRDKEICADPRVPWVKMILNKLSQ
Consider B1, for which the Fold induct. (arrestin recruitment, beta-galactosidase EFC, saturating ligand) was determined as 18.9 fold in the assay with CCR4 fused to PK1 and 3 fold in the assay with CCR4 fused to PK2.

QGPPISIDLSLELLRKMIEIEKQEKEKQQAANNRLLLDTI (peptide, UniProt P01144 1-40, looked up) [Sauvagine]: the Fold induct. (arrestin recruitment, beta-galactosidase EFC, saturating ligand) is 13.1 fold with CRHR2 fused to PK1 and 17.4 fold with CRHR2 fused to PK2.
